Source: PMC3042207 (British Journal of Pharmacology, 2011)
Where a chain is given by its changes, count along the chain named. Names may count otherwise. “And” between values parts separate entries of the source, which are not always exact repeats. Equal values may be shown once. Read-outs that look alike come from different tables or passages of the source.

How the values were obtained:
[1] = tested on: human liver microsomes (HLM); test: CYP inhibition: 4-HPR metabolite formation in HLM with CYP inhibitors; assay type: in vitro ADME; details: HLM + 4-HPR; inhibitor alone at 100 µM
[2] = tested on: CYP2C8; details: ref Ong et al., 2000; cited from earlier work
[3] = substrate: CC1=C(/C=C/C(C)=C/C=C/C(C)=C/C(=O)Nc2ccc(O)cc2)C(C)(C)CCC1; test: Glucuronidation of 4-HPR by UGT 1A3 supersomes; assay type: in vitro ADME, human; details: other: UGT 1A3, 1 mg·mL^−1; 4-HPR 0-2000 µM, 3 h; 37.0 °C
[4] = substrate: CC1=C(/C=C/C(C)=C/C=C/C(C)=C/C(=O)Nc2ccc(O)cc2)C(C)(C)CCC1; test: Glucuronidation of 4-HPR by UGT 1A6 supersomes; assay type: in vitro ADME, human; details: other: UGT 1A6, 1 mg·mL^−1; 4-HPR 0-2000 µM, 3 h; 37.0 °C
[5] = substrate: CC1=C(/C=C/C(C)=C/C=C/C(C)=C/C(=O)Nc2ccc(O)cc2)C(C)(C)CCC1; test: Glucuronidation of 4-HPR by UGT 1A1 supersomes; assay type: in vitro ADME, human; details: other: UGT 1A1, 1 mg·mL^−1; 4-HPR 0-2000 µM, 3 h; 37.0 °C
[6] = substrate: CC1=C(/C=C/C(C)=C/C=C/C(C)=C/C(=O)Nc2ccc(O)cc2)C(C)(C)CCC1; test: Metabolism of 4-HPR by CYP3A5 supersomes; assay type: in vitro ADME, human; details: other: CYP3A5 supersomes; 4-HPR 0-20 µM, 3 h; 37.0 °C
[7] = substrate: CC1=C(/C=C/C(C)=C/C=C/C(C)=C/C(=O)Nc2ccc(O)cc2)C(C)(C)CCC1; test: Metabolism of 4-HPR by CYP2C8 supersomes; assay type: in vitro ADME, human; details: other: CYP2C8 supersomes; 4-HPR 0-20 µM, 3 h; 37.0 °C
[8] = substrate: CC1=C(/C=C/C(C)=C/C=C/C(C)=C/C(=O)Nc2ccc(O)cc2)C(C)(C)CCC1; assay type: in vitro ADME, human; details: other: CYP2C8*3, E. coli membranes; 4-HPR 0-20 µM, 3 h; pH 5.0

Molecule: COc1ccc2[nH]c([S+]([O-])Cc3ncc(C)c(OC)c3C)nc2c1 (centres unmarked) [Omeprazole, omeprazole]
- effect on production of 4′-OH 4-HPR and 4′-oxo 4-HPR, inhibitor alone [1]: very little effect

Molecule: CC(=O)N1CCN(c2ccc(OCC3COC(Cn4ccnc4)(c4ccc(Cl)cc4Cl)O3)cc2)CC1 (centres unmarked) [Ketoconazole, ketoconazole]
- concentrations at which CYP2C8 is markedly inhibited [2]: > 10 µM

B1: UGT 1A3 (Homo sapiens) (protein)
chain: GKVLVVPIDGSHWLSMREVLRELHARGHQAVVLTPEVNMHIKEENFFTLTTYAISWTQDEFDRHVLGHTQLYFETEHFLKKFFRSMAMLNNMSLVYHRSCVELLHNEALIRHLNATSFDVVLTDPVNLCAAVLAKYLSIPTVFFLRNIPCDLDFKGTQCPNPSSYIPRLLTTNSDHMTFMQRVKNMLYPLALSYICHAFSAPYASLASELFQREVSVVDILSHASVWLFRGDFVMDYPRPIMPNMVFIGGINCANRKPLSQEFEAYINASGEHGIVVFSLGSMVSEIPEKKAMAIADALGKIPQTVLWRYTGTRPSNLANNTILVKWLPQNDLLGHPMTRAFITHAGSHGVYESICNGVPMVMMPLFGDQMDNAKRMETKGAGVTLNVLEMTSEDLENALKAVINDKSYKENIMRLSSLHKDRPVEPLDLAVFWVEFVMRHKGAPHLRPAAHDLTWYQYHSLDVIGFLLAVVLTVAFITFKCCAYGYRKCLGKKGRVKKAHKSKTH
- Km [3]: 389 ± 53 µM

B2: UGT 1A6 (Homo sapiens) (protein)
chain: DKLLVVPQDGSHWLSMKDIVEVLSDRGHEIVVVVPEVNLLLKESKYYTRKIYPVPYDQEELKNRYQSFGNNHFAERSFLTAPQTEYRNNMIVIGLYFINCQSLLQDRDTLNFFKESKFDALFTDPALPCGVILAEYLGLPSVYLFRGFPCSLEHTFSRSPDPVSYIPRCYTKFSDHMTFSQRVANFLVNLLEPYLFYCLFSKYEELASAVLKRDVDIITLYQKVSVWLLRYDFVLEYPRPVMPNMVFIGGINCKKRKDLSQEFEAYINASGEHGIVVFSLGSMVSEIPEKKAMAIADALGKIPQTVLWRYTGTRPSNLANNTILVKWLPQNDLLGHPMTRAFITHAGSHGVYESICNGVPMVMMPLFGDQMDNAKRMETKGAGVTLNVLEMTSEDLENALKAVINDKSYKENIMRLSSLHKDRPVEPLDLAVFWVEFVMRHKGAPHLRPAAHDLTWYQYHSLDVIGFLLAVVLTVAFITFKCCAYGYRKCLGKKGRVKKAHKSKTH
- Km [4]: 422 ± 46 µM

B3: UGT 1A1 (Homo sapiens) (protein)
chain: HAGKILLIPVDGSHWLSMLGAIQQLQQRGHEIVVLAPDASLYIRDGAFYTLKTYPVPFQREDVKESFVSLGHNVFENDSFLQRVIKTYKKIKKDSAMLLSGCSHLLHNKELMASLAESSFDVMLTDPFLPCSPIVAQYLSLPTVFFLHALPCSLEFEATQCPNPFSYVPRPLSSHSDHMTFLQRVKNMLIAFSQNFLCDVVYSPYATLASEFLQREVTVQDLLSSASVWLFRSDFVKDYPRPIMPNMVFVGGINCLHQNPLSQEFEAYINASGEHGIVVFSLGSMVSEIPEKKAMAIADALGKIPQTVLWRYTGTRPSNLANNTILVKWLPQNDLLGHPMTRAFITHAGSHGVYESICNGVPMVMMPLFGDQMDNAKRMETKGAGVTLNVLEMTSEDLENALKAVINDKSYKENIMRLSSLHKDRPVEPLDLAVFWVEFVMRHKGAPHLRPAAHDLTWYQYHSLDVIGFLLAVVLTVAFITFKCCAYGYRKCLGKKGRVKKAHKSKTH
- Km [5]: 716 ± 87 µM

B4: CYP3A5 (Homo sapiens) (protein)
chain: MDLIPNLAVETWLLLAVSLVLLYLYGTRTHGLFKRLGIPGPTPLPLLGNVLSYRQGLWKFDTECYKKYGKMWGTYEGQLPVLAITDPDVIRTVLVKECYSVFTNRRSLGPVGFMKSAISLAEDEEWKRIRSLLSPTFTSGKLKEMFPIIAQYGDVLVRNLRREAEKGKPVTLKDIFGAYSMDVITGTSFGVNIDSLNNPQDPFVESTKKFLKFGFLDPLFLSIILFPFLTPVFEALNVSLFPKDTINFLSKSVNRMKKSRLNDKQKHRLDFLQLMIDSQNSKETESHKALSDLELAAQSIIFIFAGYETTSSVLSFTLYELATHPDVQQKLQKEIDAVLPNKAPPTYDAVVQMEYLDMVVNETLRLFPVAIRLERTCKKDVEINGVFIPKGSMVVIPTYALHHDPKYWTEPEEFRPERFSKKKDSIDPYIYTPFGTGPRNCIGMRFALMNMKLALIRVLQNFSFKPCKETQIPLKLDTQGLLQPEKPIVLKVDSRDGTLSGE
- Km [6]: 19.1 ± 5.0 µM

B5: CYP2C8 (Homo sapiens) (protein)
chain: MEPFVVLVLCLSFMLLFSLWRQSCRRRKLPPGPTPLPIIGNMLQIDVKDICKSFTNFSKVYGPVFTVYFGMNPIVVFHGYEAVKEALIDNGEEFSGRGNSPISQRITKGLGIISSNGKRWKEIRRFSLTTLRNFGMGKRSIEDRVQEEAHCLVEELRKTKASPCDPTFILGCAPCNVICSVVFQKRFDYKDQNFLTLMKRFNENFRILNSPWIQVCNNFPLLIDCFPGTHNKVLKNVALTRSYIREKVKEHQASLDVNNPRDFIDCFLIKMEQEKDNQKSEFNIENLVGTVADLFVAGTETTSTTLRYGLLLLLKHPEVTAKVQEEIDHVIGRHRSPCMQDRSHMPYTDAVVHEIQRYSDLVPTGVPHAVTTDTKFRNYLIPKGTTIMALLTSVLHDDKEFPNPNIFDPGHFLDKNGNFKKSDYFMPFSAGKRICAGEGLARMELFLFLTTILQNFNLKSVDDLKNLNTTAVTKGIVSLPPSYQICFIPV
- Km [7]: 5.0 ± 3.1 µM and 2.2 ± 1.1 µM

B6: CYP2C8*3 (Homo sapiens; K399R/R139K) (protein)
chain: B5 chain with R139K, K399R
- Km [8]: 18.8 ± 8.3 µM and 8.6 ± 2.5 µM
